Assay [1] deals with G20c portal protein L49C conjugated with maleimide-porphyrin (bacteriophage G20c). Nature of the assay: SEC.
Assay [2] deals with G20c portal protein L49C single mutant (bacteriophage G20c). As to the kind of experiment: negative-stain transmission electron microscopy.
Assay [3] addresses G20c portal protein L49C/V325G/I328G conjugated with maleimide-porphyrin (bacteriophage G20c). Nature of the assay: SEC. For orientation: Size exclusion chromatography separates by hydrodynamic size, large species first.
The target of assay [4] is G20c portal protein L49C/V325G/I328G triple mutant (bacteriophage G20c). Nature of the assay: negative-stain transmission electron microscopy.
Assay [5] deals with G20c portal protein V325G mutant (bacteriophage G20c). As to the kind of experiment: crystal structure.
The target in assay [6] is G20c portal protein V325G/I328G double mutant (bacteriophage G20c). As to the kind of experiment: X-ray diffraction, self-rotation function.

Where “and” joins values, the source holds several entries; their conditions need not be identical. Identical values can stand only once.

Broadly, the stoichiometry N is the number of molecules, sites or subunits per partner or assembly.

Take “G20c portal protein L49C conjugated with maleimide-porphyrin (natural protein)”: the stoichiometry N in assay [1] is 12 and 24.

Take “G20c portal protein L49C single mutant (natural protein)”: the stoichiometry N in assay [2] amounted to 12.

On to “G20c portal protein L49C/V325G/I328G conjugated with maleimide-porphyrin (natural protein)”, for which the stoichiometry N in assay [3] is 12 and 24.

In assay [4], “G20c portal protein L49C/V325G/I328G triple mutant (natural protein)” displayed a stoichiometry N of 12.

With “G20c portal protein V325G mutant (natural protein)”, the stoichiometry N in assay [5] amounted to 12.

Consider “G20c portal protein V325G/I328G double mutant (natural protein)”, for which, in assay [6], the stoichiometry N amounted to 12.

These data come from article PMC5963890.
